Measurements as given in the supplement of paper PMC11246515.
± gives the standard deviation of the averaged measurements.

Assay: total protein half-life in vivo (active degradation + dilution); higher = more stable protein
[1] = E. coli NCM3722 delta-clpP delta-lon delta-hslV, growth: N-lim chemostat, doubling time 6 h
[2] = E. coli NCM3722 delta-clpP, growth: N-lim chemostat, doubling time 6 h
[3] = E. coli NCM3722 delta-hslV, growth: N-lim chemostat, doubling time 6 h
[4] = E. coli NCM3722 delta-lon, growth: N-lim chemostat, doubling time 6 h
[5] = E. coli NCM3722 delta-smpB, growth: N-lim chemostat, doubling time 6 h
[6] = wild type E. coli NCM3722, growth: C-lim chemostat, doubling time 3 h
[7] = wild type E. coli NCM3722, growth: C-lim chemostat, doubling time 6 h
[8] = wild type E. coli NCM3722, growth: C-lim chemostat, doubling time 12 h
[9] = wild type E. coli NCM3722, growth: N-lim chemostat, doubling time 6 h
[10] = wild type E. coli NCM3722, growth: N-lim chemostat, doubling time 12 h
[11] = wild type E. coli NCM3722, growth: P-lim chemostat, doubling time 6 h
[12] = wild type E. coli NCM3722, growth: P-lim chemostat, doubling time 12 h

| Sequence | total protein half-life in vivo [1] [h] | total protein half-life in vivo [2] [h] | total protein half-life in vivo [3] [h] | total protein half-life in vivo [4] [h] | total protein half-life in vivo [5] [h] | total protein half-life in vivo [6] [h] | total protein half-life in vivo [7] [h] | total protein half-life in vivo [8] [h] | total protein half-life in vivo [9] [h] | total protein half-life in vivo [10] [h] | total protein half-life in vivo [11] [h] | total protein half-life in vivo [12] [h] |
| --- | --- | --- | --- | --- | --- | --- | --- | --- | --- | --- | --- | --- |
| MSEKYIVTWDMLQIHARKLASRLMPSEQWKGIIAVSRGGLVPGALLARELGIRHVDTVCISSYDHDNQRELKVLKRAEGDGEGFIVIDDLVDTGGTAVAIREMYPKAHFVTIFAKPAGRPLVDDYVVDIPQDTWIEQPWDMGVVFVPPISGR [P0A9M5] | 4.63 ± 0.2 | 3.87 ± 0.29 | 4.153 ± 0.02 | 4.37 ± 0.52 | 4.28 ± 0.093 | 3 ± 0.046 | 5.55 ± 0.23 | 9.92 ± 0.83 | 4.16 ± 0.19 | 6.73 ± 0.53 | 6.07 ± 0.34 | 13.99 ± 0.054 |
| MSELNEKLATAWEGFTKGDWQNEVNVRDFIQKNYTPYEGDESFLAGATEATTTLWDKVMEGVKLENRTHAPVDFDTAVASTITSHDAGYINKQLEKIVGLQTEAPLKRALIPFGGIKMIEGSCKAYNRELDPMIKKIFTEYRKTHNQGVFDVYTPDILRCRKSGVLTGLPDAYGRGRIIGDYRRVALYGIDYLMKDKLAQFTSLQADLENGVNLEQTIRLREEIAEQHRALGQMKEMAAKYGYDISGPATNAQEAIQWTYFGYLAAVKSQNGAAMSFGRTSTFLDVYIERDLKAGKITEQEAQEMVDHLVMKLRMVRFLRTPEYDELFSGDPIWATESIGGMGLDGRTLVTKNSFRFLNTLYTMGPSPEPNMTILWSEKLPLNFKKFAAKVSIDTSSLQYENDDLMRPDFNNDDYAIACCVSPMIVGKQMQFFGARANLAKTMLYAINGGVDEKLKMQVGPKSEPIKGDVLNYDEVMERMDHFMDWLAKQYITALNIIHYMHDKYSYEASLMALHDRDVIRTMACGIAGLSVAADSLSAIKYAKVKPIRDEDGLAIDFEIEGEYPQFGNNDPRVDDLAVDLVERFMKKIQKLHTYRDAIPTQSVLTITSNVVYGKKTGNTPDGRRAGAPFGPGANPMHGRDQKGAVASLTSVAKLPFAYAKDGISYTFSIVPNALGKDDEVRKTNLAGLMDGYFHHEASIEGGQHLNVNVMNREMLLDAMENPEKYPQLTIRVSGYAVRFNSLTKEQQQDVITRTFTQSM | 4.8 ± 0.094 | 3.3 ± 0.053 | 2.98 ± 0.12 | 3.71 ± 0.17 | 2.58 ± 0.067 | 2 ± 0.078 | 3.04 ± 0.058 | 4.18 ± 0.3 | 3.04 ± 0.21 | 4.452 ± 0.017 | 3.36 ± 0.26 | 6.13 ± 0.27 |
| MSELSQLSPQPLWDIFAKICSIPHPSYHEEQLAEYIVGWAKEKGFHVERDQVGNILIRKPATAGMENRKPVVLQAHLDMVPQKNNDTVHDFTKDPIQPYIDGEWVKARGTTLGADNGIGMASALAVLADENVVHGPLEVLLTMTEEAGMDGAFGLQGNWLQADILINTDSEEEGEIYMGCAGGIDFTSNLHLDREAVPAGFETFKLTLKGLKGGHSGGEIHVGLGNANKLLVRFLAGHAEELDLRLIDFNGGTLRNAIPREAFATIAVAADKVDVLKSLVNTYQEILKNELAEKEKNLALLLDSVANDKAALIAKSRDTFIRLLNATPNGVIRNSDVAKGVVETSLNVGVVTMTDNNVEIHCLIRSLIDSGKDYVVSMLDSLGKLAGAKTEAKGAYPGWQPDANSPVMHLVRETYQRLFNKTPNIQIIHAGLECGLFKKPYPEMDMVSIGPTITGPHSPDEQVHIESVGHYWTLLTELLKEIPAK | 4.741 ± 0.0055 | 4.94 ± 0.75 | 5.28 ± 0.26 | 4.816 ± 0.018 | 4.53 ± 0.12 | 3.09 ± 0.14 | 5.61 ± 0.4 | 11.1 ± 0.36 | 4.81 ± 0.18 | 8.14 ± 0.0087 | 5.88 ± 0.37 | 13.7 ± 3.1 |
| MSELTDLLLQGPRSAPELRQRLAISQATFSRLVAREDRVIRFGKARATRYALLRPYRGIERIPVWRVDDTGKAHKFADIRLCWPQGSCLVTGADGDEQWFDGLPWYLTDLRPQGFLGRAWGRKLAAQLNLTDDIRLWQEEDVLYALTVFNGEYTGGWLVGEGNYQRWITAQHPAEIPLDQKLTHYEQLASDALAGEIVGSSAGGEQPKFTYYAQTPSGNKHVLVKFTVPQQTAVSQRWGDLLIAESIAAQILRDGGIHAIESTVLVTSNRQVFLEAERFDCKGNDGRLPIVSLEAVQSEFISSPGSWPQAMRRLCEQQLVTHQSVAQTEVIWAFGRLIANSDMHAGNLSFYLSEPPFALTPVYDMLPMVYAPNSAGMLRDAAIEVKFDLNVSKSAWLTAIPLAQQFWQTVARDPRISEAFRHIAQEMPEKIRQIEEKVARMGG |  | 5.39 ± 0.31 |  | 5.71 ± 0.22 | 4.46 ± 0.29 | 2.95 ± 0.45 | 5.9 ± 1.3 | 10.9 ± 0.43 | 4.54 ± 0.54 | 9.16 ± 2.6 | 2.5 | 6.85 ± 3.4 |
| MSEMIYGIHAVQALLERAPERFQEVFILKGREDKRLLPLIHALESQGVVIQLANRQYLDEKSDGAVHQGIIARVKPGRQYQENDLPDLIASLDQPFLLILDGVTDPHNLGACLRSADAAGVHAVIVPKDRSAQLNATAKKVACGAAESVPLIRVTNLARTMRMLQEENIWIVGTAGEADHTLYQSKMTGRLALVMGAEGEGMRRLTREHCDELISIPMAGSVSSLNVSVATGICLFEAVRQRS | 5.18 ± 0.29 | 4.81 ± 0.49 | 5.39 ± 0.28 | 5.55 ± 0.52 | 4.69 ± 0.23 | 2.73 ± 0.46 | 5.83 ± 0.66 | 10.3 ± 0.25 | 5.17 ± 0.15 | 9.48 ± 0.31 | 5.37 ± 0.4 | 11.5 ± 0.28 |
